Results as given in patent US20260209362A1 (VIB VZW, published 2026).

T1: biotinylated recombinant mouse IL-12Rβ2 (mouse, UniProt P97378 24-637, random biotinylated)
T1 construct: Recombinant protein produced in-house, biotinylated; also called mIL-12RB2; mouse IL-12RB2
T1 sequence: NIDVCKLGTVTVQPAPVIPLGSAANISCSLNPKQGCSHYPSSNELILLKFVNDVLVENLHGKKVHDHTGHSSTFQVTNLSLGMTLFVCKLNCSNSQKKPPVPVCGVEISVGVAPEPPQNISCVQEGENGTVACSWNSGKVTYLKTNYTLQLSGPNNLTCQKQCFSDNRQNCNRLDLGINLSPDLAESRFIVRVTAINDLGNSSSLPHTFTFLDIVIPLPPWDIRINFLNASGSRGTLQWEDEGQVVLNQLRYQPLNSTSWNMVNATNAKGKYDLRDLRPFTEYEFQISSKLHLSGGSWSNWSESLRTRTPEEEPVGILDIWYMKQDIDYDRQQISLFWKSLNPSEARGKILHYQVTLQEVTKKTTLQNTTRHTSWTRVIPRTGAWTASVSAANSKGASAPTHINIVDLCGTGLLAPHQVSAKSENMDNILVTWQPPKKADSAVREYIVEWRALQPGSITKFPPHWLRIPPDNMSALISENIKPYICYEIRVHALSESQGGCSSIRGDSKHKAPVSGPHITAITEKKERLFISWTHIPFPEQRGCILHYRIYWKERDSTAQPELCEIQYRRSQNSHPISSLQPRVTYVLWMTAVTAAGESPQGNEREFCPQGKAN

T2: biotinylated recombinant human IL-12Rβ2 (human, UniProt Q99665 24-622, random biotinylated)
T2 construct: Recombinant protein produced in-house, biotinylated; also called hIL-12RB2; human IL-12RB2
T2 sequence: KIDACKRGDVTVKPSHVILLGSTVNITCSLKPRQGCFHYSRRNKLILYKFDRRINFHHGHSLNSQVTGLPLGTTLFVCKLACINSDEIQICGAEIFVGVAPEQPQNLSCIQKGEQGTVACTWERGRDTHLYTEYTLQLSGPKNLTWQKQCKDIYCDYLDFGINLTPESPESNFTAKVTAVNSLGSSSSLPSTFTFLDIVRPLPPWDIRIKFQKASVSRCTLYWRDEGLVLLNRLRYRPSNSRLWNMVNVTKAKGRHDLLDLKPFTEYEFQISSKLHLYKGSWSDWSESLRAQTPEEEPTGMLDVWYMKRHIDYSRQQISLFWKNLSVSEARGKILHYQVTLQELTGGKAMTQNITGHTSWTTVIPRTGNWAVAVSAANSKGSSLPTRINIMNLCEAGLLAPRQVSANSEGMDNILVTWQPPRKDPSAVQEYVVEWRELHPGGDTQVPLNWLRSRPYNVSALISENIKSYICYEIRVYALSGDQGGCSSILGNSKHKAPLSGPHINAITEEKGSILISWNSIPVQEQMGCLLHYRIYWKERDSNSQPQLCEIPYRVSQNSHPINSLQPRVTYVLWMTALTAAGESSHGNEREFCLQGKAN


Legend:
[1] = target: human IL-12Rβ2 expressed on cells (human) (UniProt Q99665)
CD20 (human) = CD20 (human) (UniProt P11836)
Sequence of CD20 (human) (P11836 whole entry): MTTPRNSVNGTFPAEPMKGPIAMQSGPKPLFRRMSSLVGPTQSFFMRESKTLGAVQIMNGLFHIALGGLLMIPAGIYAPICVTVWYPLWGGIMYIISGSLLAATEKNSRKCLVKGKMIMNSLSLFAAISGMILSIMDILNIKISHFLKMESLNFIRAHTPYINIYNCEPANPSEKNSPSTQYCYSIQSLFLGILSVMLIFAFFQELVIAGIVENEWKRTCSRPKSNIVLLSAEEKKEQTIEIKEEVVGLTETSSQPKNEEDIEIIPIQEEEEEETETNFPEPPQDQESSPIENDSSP

[2] = target: T1, biotinylated recombinant mouse IL-12Rβ2; test: BLI (Octet), periplasmic extract on biotinylated mIL-12Rβ2 on streptavidin tips, 1:1 model
[3] = target: T2, biotinylated recombinant human IL-12Rβ2; test: BLI (Octet), periplasmic extract on biotinylated hIL-12Rβ2 on streptavidin tips, 1:1 model
[4] = target: T2, biotinylated recombinant human IL-12Rβ2; test: ELISA, periplasmic extract on biotinylated hIL-12Rβ2, signal over control wells
[5] = target: T1, biotinylated recombinant mouse IL-12Rβ2; test: BLI (Octet), periplasmic extract on biotinylated mIL-12Rβ2 on streptavidin tips
[6] = target: T1, biotinylated recombinant mouse IL-12Rβ2; test: ELISA, periplasmic extract on biotinylated mIL-12Rβ2, signal over control wells
[7] = target: T2, biotinylated recombinant human IL-12Rβ2; test: BLI (Octet), periplasmic extract on biotinylated hIL-12Rβ2 on streptavidin tips

Molecule	% Specific Cell Lysis at 0.00125 ug/mL [1] [%]	% Specific Cell Lysis at 0.025 ug/mL [1] [%]	% Specific Cell Lysis at 0.5 ug/mL [1] [%]	% Specific Cell Lysis at 10 ug/mL [1] [%]	% Specific Cell Lysis at 0.00125 ug/mL (CD20 (human)) [%]	% Specific Cell Lysis at 0.025 ug/mL (CD20 (human)) [%]	% Specific Cell Lysis at 0.5 ug/mL (CD20 (human)) [%]	% Specific Cell Lysis at 10 ug/mL (CD20 (human)) [%]	koff [2] [s⁻¹]	koff [3] [s⁻¹]	ELISA binding hIL-12RB2/control [4] [ratio]	Response [5]	ELISA binding mIL-12RB2/control [6] [ratio]	Response [7]
Rituximab (antibody)					52.4	64.7	75.6	77.5						
anti-IL-12Rβ2 VHH clone 21062 (VHH, not shown: small tags and cut ends, tested as periplasmic extract; also called 3CRHM99) VHH: QVQLQESGGGLVQPGGSLRLSCAASGISSSRLHVGWFRQSPGKEREFVAAISLSGGTQAYTDSVKGRFTISGDNVKNTAYLQMNSLRPEDTAVYYCAARERFIWTWSDLTYDYWGQGTQVTVSS									0.00671	0.00634	4.24	0.812	5.24	1.45
anti-IL-12Rβ2 VHH clone 21060 (VHH, not shown: small tags and cut ends, tested as periplasmic extract; also called 3CRHM73) VHH: QVQLQESGGGLVQAGGSLSLSCAASGSAFRLNFMGWYRQAPGKQRELVAAINSGGTEIYHDSVKGRFTISRDNADSTVWLQMNSLKPDDTAVYYCAADRGISWSKLAGGMDYWGKGTQVTVSS									0.00605	0.00605	6.9	0.944	26.3	1.45
anti-IL-12Rβ2 VHH clone 21058 (VHH, not shown: small tags and cut ends, tested as periplasmic extract; also called 3CRHM49) VHH: QVQLQESGGGLVQAGGSLRLSCAASGRTFSNYAMAWFRQAPGTEREFVAGLSGSGGDTAFYDNSVMGRFTISRDSAKNTMWLQINNLKPEDTAVYYCAAATHVVVSYGLVRRRGTYDYWGQGTQVTVSS									0.00583	0.00619	3.2	1.15	41.2	1.54
anti-IL-12Rβ2 VHH clone 21054 (VHH, not shown: small tags and cut ends, tested as periplasmic extract; also called 3CRHM18) VHH: QVQLQESGGGLVQDGGSLRLSCAASGRTFSNYAMAWFRQAPGTEREFVAGLSGSGGDTAFYDNSVMGRFTISRDSAKNTMWLQINNLKPEDTAVYYCAAATHVVVSYGLVRKRGTYDYWGQGTQVTVSS									0.00618	0.00548	3.61	0.699	45	1.14
anti-IL-12Rβ2 VHH clone 21053 (VHH, not shown: small tags and cut ends, tested as periplasmic extract; also called 3CRHM14) VHH: QVQLQESGGGLVQAGGSLRLSCAASGRTFSNYAMAWFRQAPGTEREFVAGLSGSGGDTEFYDDSVKGRFAISRDSAKNTVWLQMNSLKPEDTAVYYCAAATHVVVHYGLVRRRGTYDYWGQGTQVTVSS									0.00483	0.00532	3.11	0.957	25.1	1.19
anti-IL-12Rβ2 VHH clone 21052 (VHH, not shown: small tags and cut ends, tested as periplasmic extract; also called 3CRHM12) VHH: QVQLQESGGGSVQAGGSLRLSCAVSGRTVSDYAMGWFRQAPGKEREFVAAMSSSETTVYPNSVKGRITISRDNAKNAVYLQMNALKPEDTAVYYCSMGPIVTFQGLARQNEYHYWGQGTQVTVSS									0.00599	0.00547	7.28	0.837	38.3	1.32
anti-IL-12Rβ2 VHH clone 21063 (VHH, not shown: small tags and cut ends, tested as periplasmic extract; also called 3CRHM133) VHH: QVQLQESGGGSVQAGGSLRLSCAVSGRPVSDYAMGWFRQAPGKEREFVAALSASDTTVYPNSVKGRITISRDNAKNAVDLQMNALKPEDTAVYYCAMGPIGTFQGLARQNEYHYWGQGTQVTVSS									0.00667	0.00389	3.46	0.97	3.92	1.13
anti-IL-12Rβ2 VHH clone 21065 (VHH, not shown: small tags and cut ends, tested as periplasmic extract; also called 3CRHM240) VHH: QVQLQESGGGSVQAGGSLRLSCAVSGRTVSDYAMGWFRQAPGKEREFVVAMSSSETTVYTNSVKGRITISRDNAKNAVYLQMNALKPEDTAVYYCSMGPITTFQGLARQNEYHYWGQGTQVTVSS									0.00483	0.00457	3.78	1.05	5.72	1.5

The remaining lines, values ahead:

% Specific Cell Lysis at 0.00125 ug/mL [1] [%]	% Specific Cell Lysis at 0.025 ug/mL [1] [%]	% Specific Cell Lysis at 0.5 ug/mL [1] [%]	% Specific Cell Lysis at 10 ug/mL [1] [%]	% Specific Cell Lysis at 0.00125 ug/mL (CD20 (human)) [%]	% Specific Cell Lysis at 0.025 ug/mL (CD20 (human)) [%]	% Specific Cell Lysis at 0.5 ug/mL (CD20 (human)) [%]	% Specific Cell Lysis at 10 ug/mL (CD20 (human)) [%]	koff [2] [s⁻¹]	koff [3] [s⁻¹]	ELISA binding hIL-12RB2/control [4] [ratio]	Response [5]	ELISA binding mIL-12RB2/control [6] [ratio]	Response [7]	Molecule
47.5	50.4	48.7	44.6											IgG1 (antibody)
								0.0059	0.00486	8.23	0.586	20.2	1.18	anti-IL-12Rβ2 VHH clone 21055 (VHH, not shown: small tags and cut ends, tested as periplasmic extract; also called 3CRHM20) VHH: QVQLQESGGGLVQAGGSLRLSCAASGRTFSKSTMGWFRQTPGKEREFVAAITWTDTEVYANSVKDRFTISRDNAKNTFYLQMHSLKLEDTAVYYCAGDRYGSSRDSVFSSPTNYPYWGQGTQVTVSS
								0.00546	0.00571	3.58	1.01	5.37	1.38	anti-IL-12Rβ2 VHH clone 21064 (VHH, not shown: small tags and cut ends, tested as periplasmic extract; also called 3CRHM200) VHH: QVQLQESGGGLVQPGGSLRLSCAASGRTFSNYAMAWFRQAPGTEREFVAGLSGSGGDTAFYDNSVMGRFTISRDSAKNTMWLQINNLKPEDTAVYYCAAATHVVVSYGLVRRRGTYDYWGQGTQVTVSS
								0.00535	0.00576	4.84	1.04	35.5	1.36	anti-IL-12Rβ2 VHH clone 21057 (VHH, not shown: small tags and cut ends, tested as periplasmic extract; also called 3CRHM35) VHH: QVQLQESGGGLVQAGGSLRLSCAASGRTFSNYAMAWFRQAPGTEREFVAGLSGSGGDTAFYDNSVMGRFTISRDSAKNTMWLQINNLKPEDTAVYYCAAATHVVVNYGLVRRRGTYDYWGQGTQVTVSS
								0.00644	0.00578	3.73	0.809	11.9	1.32	anti-IL-12Rβ2 VHH clone 21051 (VHH, not shown: small tags and cut ends, tested as periplasmic extract; also called 3CAHM40) VHH: QVQLQESGGGSVQAGGSLRLSCAVSGRTVSDYAMGWFRQAPGKEREFVAAMSSSETTVYPNSMKGRITISRDNAKNAVYLQLNALKPEDTAVYYCSMGPIATFQGLARQNEYHYWGQGTQVTVSS
								0.00474	0.00343	3.52	0.816	8	1.32	anti-IL-12Rβ2 VHH clone 21061 (VHH, not shown: small tags and cut ends, tested as periplasmic extract; also called 3CRHM85) VHH: QVQLQESGGGLVQPGGSLRLSCAASRRTFSKHAMAWFRQAPGKEREFVAVVRWSGIITYYADSVKGRFTISRDDAKNTVYLQMDSLKPEDTAVYYCAAGDYRGNGYYVPGMYDYWGQGTQVTVSS
